From US20050266469

Biological target: T1, peptide derived from the known CHK1 kinase substrate CDC25C (GLYRSPSMPENLNR)
T1 chain: GLYRSPSMPENLNR

B1: CHK1sv1-His-tagged protein (protein)
chain: MAVPFVEDWDLVQTLGEGAYGEVQLAVNRVTEEAVAVKIVDMKRAVDCPENIKKEICINKMLNHENVVKFYGHRREGNIQYLFLEYCSGGELFDRIEPDIGMPEPDAQRFFHQLMAGVVYLHGIGITHRDIKPENLLLDERDNLKISDFGLATVFRYNNRERLLNKMCGTLPYVAPELLKRREFHAEPVDVWSCGIVLTAMLAGELPWDQPSDSCQEYSDWKEKKTYLNPWKKIDSAPLALLHKILVENPSARITIPDIKKDRWYNKPLKKGAKRPRVTSGGVSESPSGFSKHIQSNLDFSPVNSASRTPGSGWSKEHHHHHH
For B1, the “Km (CDC25C substrate)” value was 120 µM and the Vmax was 36 nmol/min/µg.
